Experimental data from patent publication US20250152722A1, “DRUG CONJUGATE OF GLUCOCORTICOID” (SHANGHAI SHENGDI PHARMACEUTICAL CO., LTD., priority 2022, published 2025).

How the values were obtained:
[1] = Pharmacokinetic testing on mouse model after intratracheal nebulization; assay type: in vivo; conditions: after ADC-2 100 μg i.t., mice
Experimental: C57BL6/J mice, 8 weeks old, male, Cyagen (Suzhou) Biosciences Co., Ltd.
Mice were given medication via intratracheal nebulization (i.t.). At different time points post-administration, 300-400 μL of blood was collected from a mandibular blood vessel, left to stand for 2 h, and then centrifuged at 7500 rpm and 4° C. for 10 min, and the serum was collected. Following the blood collection, the mice were anesthetized and immobilized, the neck muscles of the mice were bluntly isolated to expose the trachea, and an incision was horizontally made in the trachea. A lavage syringe needle was slowly inserted, the normal saline pre-loaded, pre-cooled at 4° C., was slowly injected into the lung tissue for lavage, and the bronchoalveolar lavage fluid (BALF) was collected. Lavage was performed 3 times, with 300 μL of normal saline used for each of the first two lavages and 400 μL for the third. The collected bronchoalveolar lavage fluid was centrifuged at 1000 rpm and 4° C. for 10 min, and the supernatant was collected. After the mice were euthanized, their thoracic cavities were opened, and the complete lung tissues were isolated and collected. The tissues were rinsed with PBS to remove blood stains on the surfaces, and the surface PBS was dried off with paper towels before weighing the lung tissues. […] The protein concentrations in the homogenates were measured (Pierce, 23227). […]

[2] = target: T1, human IL-4Rα protein (Homo sapiens, UniProt P24394); test: SPR affinity for human IL-4Rα antigen protein (Biacore 8K); assay type: binding; conditions: captured hIL-4Rα
T1 construct: purchased SinoBiological 10402-H08H-B
T1 sequence (P24394 26-232 limits assumed): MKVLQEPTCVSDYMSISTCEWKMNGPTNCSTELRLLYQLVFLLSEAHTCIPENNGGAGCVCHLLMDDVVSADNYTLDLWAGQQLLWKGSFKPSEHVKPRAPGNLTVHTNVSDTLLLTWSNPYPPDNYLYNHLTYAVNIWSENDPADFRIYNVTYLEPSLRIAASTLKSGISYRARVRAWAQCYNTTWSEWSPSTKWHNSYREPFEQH
Experimental: An SA sensor chip (Cytiva) was placed in Biacore 8K (Cytiva), and Biotin-labeled human IL-4Rα protein (SinoBiological, CAT #10402-H08H-B) was captured on the SA sensor chip. HBS-EP+buffer solution (10 mM HEPES, 150 mM NaCl, 3 mM EDTA, 0.05% surfactant P20) was used as the mobile phase. Each test protein was serially diluted 2-fold with HBS-EP+buffer solution and then injected as an analyte. […] Analysis was performed using Biacore 8K evaluation software (Cytiva), and data on the affinities of the test proteins were obtained.

[3] = target: T2, human IL-4Rα expressed on cells (human, UniProt P24394 26-825); test: flow cytometry, whole-cell binding to Karpas 299 cells expressing IL-4Rα; FITC anti-human IgG (Fab-specific) secondary antibody
T2 construct: whole, on cells; also called IL-4Rα on TF-1 cells; cells expressing human IL-4Rα
T2 sequence (looked up): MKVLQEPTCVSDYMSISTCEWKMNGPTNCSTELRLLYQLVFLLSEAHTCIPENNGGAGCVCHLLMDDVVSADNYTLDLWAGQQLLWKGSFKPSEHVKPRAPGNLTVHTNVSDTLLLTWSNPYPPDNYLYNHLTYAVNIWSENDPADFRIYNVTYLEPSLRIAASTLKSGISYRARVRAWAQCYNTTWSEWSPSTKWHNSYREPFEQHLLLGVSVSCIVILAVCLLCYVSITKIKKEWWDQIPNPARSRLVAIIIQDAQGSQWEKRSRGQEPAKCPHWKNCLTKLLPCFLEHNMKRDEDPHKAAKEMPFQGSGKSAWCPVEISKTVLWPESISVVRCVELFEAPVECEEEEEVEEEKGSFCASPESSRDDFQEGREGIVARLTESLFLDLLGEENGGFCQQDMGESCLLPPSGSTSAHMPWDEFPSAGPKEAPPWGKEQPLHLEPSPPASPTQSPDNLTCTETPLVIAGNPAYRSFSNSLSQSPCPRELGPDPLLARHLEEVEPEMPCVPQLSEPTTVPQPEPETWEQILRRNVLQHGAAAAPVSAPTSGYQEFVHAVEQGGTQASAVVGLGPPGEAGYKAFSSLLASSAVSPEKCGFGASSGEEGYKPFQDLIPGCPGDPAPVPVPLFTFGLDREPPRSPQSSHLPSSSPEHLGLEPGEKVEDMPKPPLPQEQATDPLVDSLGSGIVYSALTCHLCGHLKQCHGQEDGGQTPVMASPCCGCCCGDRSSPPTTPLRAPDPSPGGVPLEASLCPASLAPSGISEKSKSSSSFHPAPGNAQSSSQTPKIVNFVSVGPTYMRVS
Experimental: (§1) TF-1 and Karpas299 cells in the logarithmic growth phase were harvested and counted, and the cell density was adjusted. The cells were inoculated onto a 96-well round-bottom plate at 1×10⁵ cells/well. […] After the antibodies were washed off with FACS buffer (PBS containing 2% FBS), a fluorescently labeled secondary antibody was added for staining. […] The cells were incubated with the secondary antibodies at 4° C. for 30 min, then washed with FACS buffer twice, and assayed on a flow cytometer (BD, FACS Celesta), and the results were analyzed using FlowJo (FlowJo, LLC) software.

[4] = target: T2, human IL-4Rα expressed on cells; test: cell-based or functional assay
[5] = target: T2, human IL-4Rα expressed on cells; test: flow cytometry on TF-1 cells, anti-hFab-FITC secondary antibody
Experimental: as §1

[6] = target: T3, Biotin-labeled human IL-4Rα protein (SinoBiological, CAT #10402-H08H-B) (human, UniProt P24394 26-232, Biotin-labeled (sites not given)); test: SPR, Biacore 8K, biotinylated hIL-4Rα captured on SA chip, test protein as analyte
T3 construct: Bought reagent, captured on an SA sensor chip; also called hIL-4Rα; human IL-4Rα antigen protein
T3 sequence (looked up): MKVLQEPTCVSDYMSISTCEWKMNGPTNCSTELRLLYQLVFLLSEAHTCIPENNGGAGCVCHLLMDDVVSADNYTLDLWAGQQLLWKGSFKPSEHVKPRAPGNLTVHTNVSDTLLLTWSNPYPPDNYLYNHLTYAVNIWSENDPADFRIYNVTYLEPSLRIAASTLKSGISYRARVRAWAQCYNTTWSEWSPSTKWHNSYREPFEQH
Experimental: HBS-EP+buffer solution (10 mM HEPES, 150 mM NaCl, 3 mM EDTA, 0.05% surfactant P20) was used as the mobile phase. Each test protein was serially diluted 2-fold with HBS-EP+buffer solution and then injected as an analyte. The flow rate was set to 30 μL/min. […] Analysis was performed using Biacore 8K evaluation software (Cytiva), and data on the affinities of the test proteins were obtained.

Row | Molecule | EC50 (read off the curve) [3] [nM] | IC50 value (nM) for blocking of IL-4 signaling pathway (HEK-Blue IL-4/IL-13 STAT6-SEAP reporter cells, recombinant human IL-4) [4] [nM] | IC50 value (nM) for blocking of IL-13 signaling pathway (HEK-Blue IL-4/IL-13 STAT6-SEAP reporter cells, recombinant human IL-13) [4] [nM] | EC50 [5] [nM] | other results
1 | CCCC1O[C@@H]2C[C@H]3[C@@H]4CCC5=CC(=O)C=C[C@]5(C)[C@H]4[C@@H](O)C[C@]3(C)[C@]2(C(=O)CO)O1 (stereo partly drawn) [Free budesonide, budesonide] |  |  |  |  | exposure of budesonide in serum, BALF and lung tissue (in words) [1]: low in all these tissues
2 | AZD1402-TAG: protein sequence from SEQ ID NO: 1 in WO2020200960A1 with a His tag fused at the C-terminus (SEQ ID NO: 52) |  |  |  |  | Koff [2]: 0.000102 s⁻¹; Kon [2]: 4.77e+06 M⁻¹ s⁻¹
3 | antibody-drug conjugate ADC-2 (other, budesonide linker-drug (Compound 2) coupled after TCEP reduction of 25G7-Fab; positions and drug loading not given; budesonide linker-drug (Compound 2, maleimide-(PEG)4-CH2CH2C(O)-Gly-Gly-Phe-Gly-NHCH2-O-budesonide) coupled after TCEP reduction of 25G7-Fab; positions and drug loading not given) heavy: EVQLVESGGGLVQPGGSLRLSCAASGFTFSDYGMHWVRQAPGKGLEWVAFISSGSSIIYYADIVKGRSTISRDNAKNTLYLQMNSLRAEDTAVYYCTRGNKRGFFDYWGQGTLVTVSSASTKGPSVFPLAPCSRSTSESTAALGCLVKDYFPEPVTVSWNSGALTSGVHTFPAVLQSSGLYSLSSVVTVPSSSLGTKTYTCNVDHKPSNTKVDKRV light: EIVLTQSPATLSLSPGERATLSCRASSSVPYMYWYQQKPGQAPRLLIYLTSNLASGIPARFSGSGSGTDFTLTISSLEPEDFAVYYCQQWRAYPPMLTFGGGTKVEIKRTVAAPSVFIFPPSDEQLKSGTASVVCLLNNFYPREAKVQWKVDNALQSGNSQESVTEQDSKDSTYSLSSTLTLSKADYEKHKVYACEVTHQGLSSPVTKSFNRGEC | ~0.3 | 0.68 | 10.6 |  | 
4 | 25G7-Fab (Fab, V domains shown, Heavy chain is VH-CH1 (hu25G7-24-IgG4 VH-CH1), light chain is hu25G7-A LC; also called naked antibody 25G7-Fab; antibody 25G7-Fab) VH: EVQLVESGGGLVQPGGSLRLSCAASGFTFSDYGMHWVRQAPGKGLEWVAFISSGSSIIYYADIVKGRSTISRDNAKNTLYLQMNSLRAEDTAVYYCTRGNKRGFFDYWGQGTLVTVSS VL: EIVLTQSPATLSLSPGERATLSCRASSSVPYMYWYQQKPGQAPRLLIYLTSNLASGIPARFSGSGSGTDFTLTISSLEPEDFAVYYCQQWRAYPPMLTFGGGTKVEIKR | ~0.2 | 0.61 | 14.6 | 0.243 | Kd [6]: 0.0439 nM; koff [6]: 0.000206 s⁻¹; kon [6]: 4.69e+06 M⁻¹ s⁻¹
5 | hu25G7 (antibody, human IgG4 S228P, kappa, V domains shown, Full-length humanized antibody) VH: EVQLVESGGGLVQPGGSLRLSCAASGFTFSDYGMHWVRQAPGKGLEWVAFISSGSSIIYYADIVKGRSTISRDNAKNTLYLQMNSLRAEDTAVYYCTRGNKRGFFDYWGQGTLVTVSS VL: EIVLTQSPATLSLSPGERATLSCRASSSVPYMYWYQQKPGQAPRLLIYLTSNLASGIPARFSGSGSGTDFTLTISSLEPEDFAVYYCQQWRAYPPMLTFGGGTKVEIKR | ~0.1 |  |  | 0.247 | 
